Measurements taken from IntAct's records for PubMed 19913487.

B1: ATP-dependent RNA helicase DDX3X (Homo sapiens), O00571 (parent)
chain: MSHVAVENALGLDQQFAGLDLNSSDNQSGGSTASKGRYIPPHLRNREATKGFYDKDSSGWSSSKDKDAYSSFGSRSDSRGKSSFFSDRGSGSRGRFDDRGRSDYDGIGSRGDRSGFGKFERGGNSRWCDKSDEDDWSKPLPPSERLEQELFSGGNTGINFEKYDDIPVEATGNNCPPHIESFSDVEMGEIIMGNIELTRYTRPTPVQKHAIPIIKEKRDLMACAQTGSGKTAAFLLPILSQIYSDGPGEALRAMKENGRYGRRKQYPISLVLAPTRELAVQIYEEARKFSYRSRVRPCVVYGGADIGQQIRDLERGCHLLVATPGRLVDMMERGKIGLDFCKYLVLDEADRMLDMGFEPQIRRIVEQDTMPPKGVRHTMMFSATFPKEIQMLARDFLDEYIFLAVGRVGSTSENITQKVVWVEESDKRSFLLDLLNATGKDSLTLVFVETKKGADSLEDFLYHEGYACTSIHGDRSQRDREEALHQFRSGKSPILVATAVAARGLDISNVKHVINFDLPSDIEEYVHRIGRTGRVGNLGLATSFFNERNINITKDLLDLLVEAKQEVPSWLENMAYEHHYKGSSRGRSKSSRFSGGFGARDYRQSSGASSSSFSSSRASSSRSGGGGHGSSRGFGGGGYGGFYNSDGYGGNYNSQGVDWWGN

Variants of: B1
Settings: with pg044_vaccw OPG044, P68466
F84A;F85A was tested, and the “effect of a mutation on the interaction” value was “disrupting interaction”.
